Measurements taken from article PMC6219380.

Biological target: SgcC5 (unlabelled) (Streptomyces globisporus)
Assay: SEC

Substance: SgcC5 (unlabelled) (enzyme)
- stoichiometry N: 2
